Patent publication EP4491631A1 (Anaveon AG, dated 2025)

T1: IL-2R CD122-CD132 on Jurkat-PD1+ CD122+ cells (UniProt P14784 27-551; P31785 23-369)
T1 sequence (looked up) 1: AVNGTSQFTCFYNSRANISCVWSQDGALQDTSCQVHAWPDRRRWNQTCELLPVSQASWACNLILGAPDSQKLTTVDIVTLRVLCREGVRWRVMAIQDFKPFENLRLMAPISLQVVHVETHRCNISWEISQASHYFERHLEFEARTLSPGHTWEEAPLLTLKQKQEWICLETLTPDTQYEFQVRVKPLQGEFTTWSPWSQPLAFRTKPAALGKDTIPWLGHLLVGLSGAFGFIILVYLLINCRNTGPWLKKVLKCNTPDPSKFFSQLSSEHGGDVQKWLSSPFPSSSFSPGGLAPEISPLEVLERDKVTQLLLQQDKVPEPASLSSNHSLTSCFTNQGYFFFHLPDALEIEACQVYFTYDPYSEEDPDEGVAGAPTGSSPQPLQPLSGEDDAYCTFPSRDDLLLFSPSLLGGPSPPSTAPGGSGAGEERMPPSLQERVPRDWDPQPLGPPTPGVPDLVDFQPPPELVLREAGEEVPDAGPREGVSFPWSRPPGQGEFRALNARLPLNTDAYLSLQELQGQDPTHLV
T1 sequence (looked up) 2: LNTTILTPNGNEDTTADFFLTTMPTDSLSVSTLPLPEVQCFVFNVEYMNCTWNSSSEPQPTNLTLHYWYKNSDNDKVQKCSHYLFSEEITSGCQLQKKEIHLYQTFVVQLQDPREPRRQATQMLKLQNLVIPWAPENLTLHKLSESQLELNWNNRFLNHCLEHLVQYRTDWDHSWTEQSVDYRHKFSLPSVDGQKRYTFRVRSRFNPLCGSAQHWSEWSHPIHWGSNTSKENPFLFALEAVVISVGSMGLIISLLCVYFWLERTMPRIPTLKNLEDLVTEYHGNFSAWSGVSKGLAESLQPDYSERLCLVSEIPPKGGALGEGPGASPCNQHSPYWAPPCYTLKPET

B1: GQM289 (bispecific antibody, human IgG1, kappa, lambda, L234A L235A)
chain 1: EVQLLESGGGLVQPGGSLRLSCAASGFTFSINAMTWVRQAPGKGLEWVSTISGSGFSTYYADSLKGRFTISRDNSKNTLYLQMNSLRAEDTAVYYCAKEVYGDYWGQGTLVTVSSASTKGPSVFPLAPSSKSTSGGTAALGCLVKDYFPEPVTVSWNSGALTSGVHTFPAVLQSSGLYSLSSVVTVPSSSLGTQTYICNVNHKPSNTKVDKRVEPKSCDKTHTCPPCPAPEAAGGPSVFLFPPKPKDTLMISRTPEVTCVVVDVSHEDPEVKFNWYVDGVEVHNAKTKPREEQYNSTYRVVSVLTVLHQDWLNGKEYKCKVSNKALAAPIEKTISKAKGQPREPQVYTLPPSREEMTKNQVSLTCLVKGFYPSDIAVEWESNGQPENNYKTTPPVLDSDGSFFLTSKLTVDKSRWQQGNVFSCSVMHEALHNHYTQKSLSLSPGK
chain 2: not shown
chain 3: EVQLVQSGAEVKKPGESLKISCKGSGYAFTNYLIEWVRQMPGKGLEWMGVINPGSGGTNYNEKFKGQVTISADKSISTAYLQWSSLKASDTAMYYCARWRGEGYYAYFDVWGQGTTVTVSSASTKGPSVFPLAPSSKSTSGGTAALGCLVKDYFPEPVTVSWNSGALTSGVHTFPAVLQSSGLYSLSSVVTVPSSSLGTQTYICNVNHKPSNTKVDKRVEPKSCDKTHTCPPCPAPEAAGGPSVFLFPPKPKDTLMISRTPEVTCVVVDVSHEDPEVKFNWYVDGVEVHNAKTKPREEQYNSTYRVVSVLTVLHQDWLNGKEYKCKVSNKALAAPIEKTISKAKGQPREPQVYTLPPSREEMTKNQVSLYCLVKGFYPSDIAVEWESNGQPENNYKTTPPVLDSDGSFFLYSKLTVDKSRWQQGNVFSCSVMHEALHNHYTQKSLSLSPGK
chain 4: not shown
B2: LTJ498 (bispecific antibody, human IgG1, lambda, L234A L235A)
chain 1: B1 chain 1
chain 2: not shown
chain 3: AIRLTQSPSSFSASTGDRVTITCKASQSVDYGGGNFHLRPRDLISNINVIVLELKGSETTFMCEYADETATIVEFLNRWITFSQSIISTLTPTSSSTKKTQLQLEHLLLDLQMILNGINNYKNPKLTRMLTFKFYMPKKATELKHLQCLEEELKPLEEVLNLAQSKGGGGDSYMNWYQQKPGKAPKLLIYAASNLESGVPSRFSGSGSGTDFTLTISSLQSEDFATYYCQQSNEDPYTFGGGTKVEIKGGGGSGGGGSGGGGSEVQLVQSGAEVKKPGESLKISCKGSGYAFTNYLIEWVRQMPGKGLEWMGVINPGSGGTNYNEKFKGQVTISADKSISTAYLQWSSLKASDTAMYYCARWRGEGYYAYFDVWGQGTTVTVSSGGGGSGGGGSEVQLLESGGGLVQPGGSLRLSCAASGFTFSINAMTWVRQAPGKGLEWVSTISGSGFSTYYADSLKGRFTISRDNSKNTLYLQMNSLRAEDTAVYYCAKEVYGDYWGQGTLVTVSSASTKGPSVFPLAPSSKSTSGGTAALGCLVKDYFPEPVTVSWNSGALTSGVHTFPAVLQSSGLYSLSSVVTVPSSSLGTQTYICNVNHKPSNTKVDKRVEPKSCDKTHTCPPCPAPEAAGGPSVFLFPPKPKDTLMISRTPEVTCVVVDVSHEDPEVKFNWYVDGVEVHNAKTKPREEQYNSTYRVVSVLTVLHQDWLNGKEYKCKVSNKALAAPIEKTISKAKGQPREPQVYTLPPSREEMTKNQVSLYCLVKGFYPSDIAVEWESNGQPENNYKTTPPVLDSDGSFFLYSKLTVDKSRWQQGNVFSCSVMHEALHNHYTQKSLSLSPGK
B3: XWY176 (bispecific antibody, human IgG1, kappa, lambda, L234A L235A)
chain 1: B1 chain 1
chain 2: not shown
chain 3: B1 chain 3
chain 4: not shown
B4: z5-XVT458 (antibody, human IgG1, kappa, V domains shown)
VH: QVQLVQSGAEVKKPGASVKVSCKASGYTFTNFYIHWVRQAPGQGLEWMGSIYPNYGDTAYNQKFKDRATMTTDKSTSTAYMELRSLRSDDTAVYYCARGYSYAMDYWGQGTTVTVSS
VL: DIQMTQSPSSVSASVGDRVTITCSASQGISGDLNWYQQKPGKAPKLLIYHTSSLHSGVPSRFSGSGSGTDFTLTISSLQPEDFATYYCQYYSKDLLTFGGGTKLEIKR
notes: full hIgG1 format

Legend:
[1] = molecular target: T1, IL-2R CD122-CD132 on Jurkat-PD1+ CD122+ …; test: cell-based or functional assay
[2] = molecular target: T2, cynoPD-1 His (AcroBiosystems PD1-C5223) (cynomolgus monkey, UniProt B0LAJ3 25-170); test: SPR, antibody captured
T2 construct: also called cPD-1
T2 sequence (B0LAJ3 entry or part of it limits assumed, form in doubt): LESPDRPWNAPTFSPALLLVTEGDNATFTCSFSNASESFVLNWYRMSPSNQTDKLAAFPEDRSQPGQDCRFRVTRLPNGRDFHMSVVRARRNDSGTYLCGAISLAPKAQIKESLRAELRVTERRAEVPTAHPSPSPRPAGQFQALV

Binder | EC50 value for pSTAT5 induction [1] [nM] | koff [2] [s⁻¹]
B1 | 0.22 | –
B2 | 0.24 | –
B3 | 0.27 | –
B4 | – | 0.00338
